# Test: soluble on expression in E. coli; label from the status in PepcDB or PDB records
row,Sequence,soluble on expression in E. coli
1,MAANSTRRPIIAFMSDLGTTDDSVAQCKGLMYSICPDVTVVDVCHSMTPWDVEEGARYIVDLPRFFPEGTVFATTTYPATGTTTRSVAVRIKQAAKGGARGQWAGSGAGFERAEGSYIYIAPNNGLLTTVLEEHGYLEAYEVTSPKVIPEQPEPTFYAREMVAIPSAHLAAGFPLSEVGRPLEDHEIVRFNRPAVEQDGEALVGVVSAIDHPFGNVWTNIHRTDLEKAGIGYGARLRLTLDGVLPFEAPLTPTFADAGEIGNIAIYLNSRGYLSIARNAASLAYPYHLKEGMSARVEAR,soluble
2,MPITKFIWSPSGTGLSEHAWATSESTGAAWVGNDAAAHISLLRSTVAEELAVPLEQAGMDAATMQRAVDTAIDTWGLRGQAEQDPMTLSSGQTRRLAIAGALITRPEALVLDCPTDGLDTEAIEILHRIVDSFPGNVTVYDRMHTALATTAAEQLRLTSSGDLVPEPAPDPVDTVSARFTPIDLSTDHGPLLCAKNLRIPRGATTVGPISCEVSPSSVTHLAGLNGTGKTSFFLAALGLVASTGTLQVADGVTMGWAPADMDSALSRRTVATELTVGATPELAQAAIEFMGLEQWADTHPLDVPAAWRRFVLIAAALVRGPHLLLLDEPTVNLDAPNHGHLSLLMHRYCAGEFHRMAGLDLGGHHPAVLFTCHDARYAQAVSTAEIRI,not soluble
3,HPMCKEHEDEKINIYCLTCEVPTCSMCKVFGIHKACEVAPLQSVFQGQKTE,soluble
4,GSHADLLRKNAEVTKQVSMARQAQVDLEREKKELEDSLERISDQGQRKTQEQLEVLESLKQELATSQRELQVLQGSLETSAQSEANWAAEFAELEKERDSLVSGAAH,soluble
5,AWVDQTPRTATKETGESLTINCVLRDASYGLESTGWYRTKLGSTNEQTISIGGRYVETVNKGSKSFSLRIRDLRVEDSGTYKCGAFRFWLPYGYGSLPLSEKGAGTVLTVK,soluble
6,TKDFSWDTTLSFTWSKEKINSLPTGDLIKENLFEGQPIHALYDYKYAGIWGSNVPQETLDAYGVKPGWVKIETLDKDGDGGVHKYGEDDRQILGHTNPDVILGLNNTLTYKNFDLSIFAMARYGQTIKSSLIGWYRASSNYSINQPAGVDYWTENNQGAYYPVPGSGDEQKVMSALTYRDGSFIKVKNITLGYTLPQSVSRKVLMEKCRFYATAYNPFLYVKDKELRGTDPETNGSDAFPLYKQFVFGINVTF,not soluble
7,MERMSDSADKPIDNDAEGVWSPDIEQSFQEALAIYPPCGRRKIILSDEGKMYGRNELIARYIKLRTGKTRTRKQVSSHIQVLARRKSRDFHSKLKDQTAKDKALQHMAAMSSAQIVSATAIHNKLGLPGIPRPTFPGGPGFWPGMIQTGQPGSSQDVKPFVQQAYPIQPAVTAPIPGFEPTSAPAPSVPAWQGRSIGTTKLRLVEFSAFLEQQRDPDSYNKHLFVHIGHANHSYSDPLLESVDIRQIYDKFPEKKGGLKELFGKGPQNAFFLVKFWADLNCNIQDDAGAFYGVSSQYESSENMTVTCSTKVCSFGKQVVEKVETEYARFENGRFVYRINRSPMCEYMINFIHKLKHLPEKYMMNSVLENFTILLVVTNRDTQETLLCMACVFEVSNSEHGAQHHIYRLVKD,soluble
8,MLKRLGIVGFGASAIGFINGLIESGKVKDYRITVLERGKDYSHNTISGVRMDGKIFISHGMGGEIYIPLEIQAKTVEFYLKFSGYTPTVDKRVGIVNYLKSFERDGRKIEFGESFSDEEIYKRFYHHGFEPVKSYFFHLGTDILKETNKNIYEYFSSFENIEFLFGTTVEDVEFGPPHRVHTNRGDFEFDELVIAVGRSGHRLMERLKEKYPQLVRPNQFVDIGVRYELPNHVMDPFSDMYEVKVRYRTKTGYICRIFCQNPAGKVTLEKYEDFTTVNGYSDSLHKTENTNFAILVTTRFTEPFKDPTGYGVNLAKLANILAGDKEKVILQTYGDFKEFRRTKRLGRVHPTLDSESYILGDANLVFPSKIRESLVDFVENLEKVIPGASYFDNLLYAVEVKFYTNKFLNDIVEGLHVVGDCSGWTRSIQYATSMGYMRAVGMKIQSLLEHHHHHH,not soluble
9,MYKYISNELPQFFENGMLRFTQPGQFNDPFELLPRYVDFMGENTKQYILDNIEVLVKEIPQNEPWYIKLIPMSIKVFAIRLLLTSNHKRVKKVTDEIDAFGLSVANGQYRDIIDQSYGILCLSAKEDSLLMWSHYGNSHKGYVIEFDTSHKFFNQVIPNKKTGGVLDYAGTPLKVTYTKRRKTILFWQKAMSEVFLTKGSDWEYEQEYRMVLPLETSTEVVNGNIHLFHIPFDAVKSIIFGAKCEDEFIQNSIAKIHHWDSKHIDFQLFQFNLSDNDFELVRKKI,soluble
